# Experimental data: patent publication US20200283478A1 (Genentech, published 2020)
# Square brackets hold non-standard residues; d marks the D form. Ends that are not written are not given here. * marks the point of attachment. hArg = N=C(N)NCCCC[C@H](N)C(=O)O; Pentanoyl = CCCCC(=O)*
# Key:
# [1] = molecular target: T1, His-tagged, full-length PCSK9 (human, UniProt Q8NBP7 31-692); assay: TR-FRET competition; His-PCSK9, competitor EGF(A)-Fc
# T1 construct: The secreted protein is autocleaved into a prodomain and a catalytic/Cys-rich chain that starts at S153; also called His-PCSK9
# Protocol: (§1) Signal generation in the PCSK9 binding assays was dependent upon the binding interaction to bring into close proximity the His-tag on the PCSK9 and the Fc-tag on the ligand. Anti-His-APC was bound to the His-tag, and anti-Fc-europium was bound to the Fc-tag.
# (§2) Compounds were solubilized and dilutions were prepared in DMSO. […] The plate was centrifuged to mix the well contents and allowed to incubate for 30 min. […] The normalized TR-FRET ratios were plotted as a function of the compound concentrations, and the IC₅₀ values were determined using a 4-parameter logistic regression.
# His-tagged PCSK9Δhelix = molecular target: T2, His-tagged PCSK9Δhelix (human, UniProt Q8NBP7 31-152; Q8NBP7 168-692); assay: TR-FRET competition; His-PCSK9Δhelix, competitor Ab20
# T2 construct: Construct M1-Q692 with engineered TEV site, cut by TEV protease; new N-terminus of the catalytic domain is S-A168; also called His-PCSK9Δhelix
# T2 sequence (Q8NBP7 31-152, stated change not applied, chain 1 of 2): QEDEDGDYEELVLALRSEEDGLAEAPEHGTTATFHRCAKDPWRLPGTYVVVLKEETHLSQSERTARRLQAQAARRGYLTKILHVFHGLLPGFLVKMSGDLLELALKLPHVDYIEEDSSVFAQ
# T2 sequence (Q8NBP7 other isoform, or with tags, fused parts or gaps mutant, chain 2 of 2): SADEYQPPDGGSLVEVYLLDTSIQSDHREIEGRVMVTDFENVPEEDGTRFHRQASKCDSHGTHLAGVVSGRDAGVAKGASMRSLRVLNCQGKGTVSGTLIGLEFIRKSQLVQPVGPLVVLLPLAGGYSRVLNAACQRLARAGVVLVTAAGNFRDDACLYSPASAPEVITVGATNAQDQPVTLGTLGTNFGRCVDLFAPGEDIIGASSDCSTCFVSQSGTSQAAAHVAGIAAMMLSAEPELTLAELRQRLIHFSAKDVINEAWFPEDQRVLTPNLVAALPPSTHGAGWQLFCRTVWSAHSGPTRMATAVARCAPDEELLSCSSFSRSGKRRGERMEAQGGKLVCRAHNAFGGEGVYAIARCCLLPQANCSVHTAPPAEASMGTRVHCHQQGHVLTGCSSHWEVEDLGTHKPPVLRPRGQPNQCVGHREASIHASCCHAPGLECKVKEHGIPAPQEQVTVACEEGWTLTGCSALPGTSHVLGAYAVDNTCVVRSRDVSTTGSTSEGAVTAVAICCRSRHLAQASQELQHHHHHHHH
# Protocol: as §1, §2
# T1 sequence (Q8NBP7 other isoform, or with tags, fused parts or gaps limits assumed): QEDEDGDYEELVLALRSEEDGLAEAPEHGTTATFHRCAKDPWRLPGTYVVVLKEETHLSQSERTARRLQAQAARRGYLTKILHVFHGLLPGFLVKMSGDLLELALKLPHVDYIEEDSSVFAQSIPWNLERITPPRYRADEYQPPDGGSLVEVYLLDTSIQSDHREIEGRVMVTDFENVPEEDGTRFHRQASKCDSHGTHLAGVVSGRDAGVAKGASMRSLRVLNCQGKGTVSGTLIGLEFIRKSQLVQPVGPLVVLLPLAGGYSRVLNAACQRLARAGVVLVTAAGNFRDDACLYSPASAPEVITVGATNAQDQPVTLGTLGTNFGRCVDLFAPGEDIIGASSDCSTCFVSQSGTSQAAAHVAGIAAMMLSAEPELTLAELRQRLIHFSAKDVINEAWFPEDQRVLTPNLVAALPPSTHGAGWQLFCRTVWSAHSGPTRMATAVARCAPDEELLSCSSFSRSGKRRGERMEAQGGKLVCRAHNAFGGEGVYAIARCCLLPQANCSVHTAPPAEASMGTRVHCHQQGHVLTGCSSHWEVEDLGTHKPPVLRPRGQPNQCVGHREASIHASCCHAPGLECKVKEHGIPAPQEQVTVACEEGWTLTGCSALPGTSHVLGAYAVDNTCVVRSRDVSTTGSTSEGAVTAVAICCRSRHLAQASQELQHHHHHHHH
IC50 [1] [nM],IC50 (His-tagged PCSK9Δhelix) [nM],Binder
6000,300,"WNLV[hArg]IGLLR (also: further groups not given here, Structure printed only as a drawing) [Compound 216]"
21000,1600,"WNLV[hArg]IGLLR (also: end groups and other groups only in drawing, Structure printed only as a drawing) [Compound 203]"
15000,1600,"WNLV[hArg]IGLLR (also: further groups not given here, Structure printed only as a drawing) [Compound 212]"
5000,260,"WNLV[hArg]IGLLR (also: further groups not given here, Structure printed only as a drawing) [Compound 218]"
≥ 50000,1500,"WNLV[hArg]IGLLR (also: end groups and other groups only in drawing, Structure printed only as a drawing) [Compound 193]"
37000,910,"WNLV[hArg]IGLLR (also: further groups not given here, Structure printed only as a drawing) [Compound 220]"
9500,650,"WNLV[hArg]IGLLR (also: further groups not given here, Structure printed only as a drawing) [Compound 221]"
1700,250,"WNLV[hArg]IGLLR (also: end groups and other groups only in drawing, Structure printed only as a drawing) [Compound 198]"
2600,340,"WNLV[hArg]IGLLR (also: end groups and other groups only in drawing, Structure printed only as a drawing) [Compound 202]"
14000,3800,"WNLV[hArg]IGLLR (also: further groups not given here, Structure printed only as a drawing) [Compound 211]"
3900,1000,"WNLV[hArg]IGLLR (also: end groups and other groups only in drawing, Structure printed only as a drawing) [Compound 201]"
6200,350,"WNLV[hArg]IGLLR (also: further groups not given here, Structure printed only as a drawing) [Compound 226]"
3800,200,"WNLV[hArg]IGLLR (also: further groups not given here, Structure printed only as a drawing) [Compound 213]"
7000,480,"WNLV[hArg]IGLLR (also: further groups not given here, Structure printed only as a drawing) [Compound 215]"
2900,450,"WNLV[hArg]IGLLR (also: further groups not given here, Structure printed only as a drawing) [Compound 209]"
2800,640,"WNLV[hArg]IGLLR (also: end groups and other groups only in drawing, Structure printed only as a drawing) [Compound 205]"
≥ 50000,5300,Ac-WNLV[hArg]IGLLR-NH2 (also called Ac-WNLV(homoR)IGLLR-NH2) [Compound 192]
≥ 50000,1400,"Pentanoyl-WNLV[hArg]IGLTR-NH2 (SMILES CCCCC(=O)N[C@@H](Cc1c[nH]c2ccccc12)C(=O)N[C@@H](CC(N)=O)C(=O)N[C@@H](CC(C)C)C(=O)N[C@H](C(=O)N[C@@H](CCCCNC(=N)N)C(=O)N[C@H](C(=O)NCC(=O)N[C@@H](CC(C)C)C(=O)N[C@H](C(=O)N[C@@H](CCCNC(=N)N)C(N)=O)[C@@H](C)O)[C@@H](C)CC)C(C)C, also called n-BuC(O)-WNLV(homoR)IGLTR-NH2) [Compound 234]"
8800,330,"WNLV[hArg]IGLLQ-NH2 (N-terminus assumed; SMILES CC[C@H](C)[C@H](NC(=O)[C@H](CCCCNC(=N)N)NC(=O)[C@@H](NC(=O)[C@H](CC(C)C)NC(=O)[C@H](CC(N)=O)NC(=O)[C@@H](N)Cc1c[nH]c2ccccc12)C(C)C)C(=O)NCC(=O)N[C@@H](CC(C)C)C(=O)N[C@@H](CC(C)C)C(=O)N[C@@H](CCC(N)=O)C(N)=O, also called WNLV(homoR)IGLLQ-NH2) [Compound 237]"
7700,330,"WNLV[hArg]IGLLN (also: further groups not given here, Structure printed only as a drawing) [Compound 238]"

IC50 [1] [nM],IC50 (His-tagged PCSK9Δhelix) [nM],Binder
≥ 50000,2700,Pentanoyl-WNLV[hArg]IGLTR (also called n-BuC(O)-WNLV(homoR)IGLTR) [Compound 235]
3000,210,"WNLV[hArg]IGLLR (also: further groups not given here, Structure printed only as a drawing) [Compound 214]"
1600,17000,Ac-ESYPGWNLV[hArg]IGLLR-NH2 (SMILES CC[C@H](C)[C@H](NC(=O)[C@H](CCCCNC(=N)N)NC(=O)[C@@H](NC(=O)[C@H](CC(C)C)NC(=O)[C@H](CC(N)=O)NC(=O)[C@H](Cc1c[nH]c2ccccc12)NC(=O)CNC(=O)[C@@H]1CCCN1C(=O)[C@H](Cc1ccc(O)cc1)NC(=O)[C@H](CO)NC(=O)[C@H](CCC(=O)O)NC(C)=O)C(C)C)C(=O)NCC(=O)N[C@@H](CC(C)C)C(=O)N[C@@H](CC(C)C)C(=O)N[C@@H](CCCNC(=N)N)C(N)=O) [Compound 231]
7000,530,"WNLV[hArg]IGLLR (also: further groups not given here, Structure printed only as a drawing) [Compound 224]"
21000,1400,"WNLV[hArg]IGLLR (also: further groups not given here, Structure printed only as a drawing) [Compound 222]"
9900,680,"WNLV[hArg]IGLLR (also: further groups not given here, Structure printed only as a drawing) [Compound 219]"
970,90,"WNLV[hArg]IGLLR (also: end groups and other groups only in drawing, Structure printed only as a drawing) [Compound 197]"
3200,670,"WNLV[hArg]IGLLR (also: end groups and other groups only in drawing, Structure printed only as a drawing) [Compound 200]"
3600,870,"WNLV[hArg]IGLLR (also: further groups not given here, Structure printed only as a drawing) [Compound 204]"
450,100,"WNLV[hArg]IGLLR (also: further groups not given here, Structure printed only as a drawing) [Compound 208]"
≥ 50000,1900,"WNLV[hArg]IGLLR (also: end groups and other groups only in drawing, Structure printed only as a drawing) [Compound 194]"
1300,320,"WNLV[hArg]IGLLR (also: further groups not given here, Structure printed only as a drawing) [Compound 207]"
3000,840,"WNLV[hArg]IGLLR (also: further groups not given here, Structure printed only as a drawing) [Compound 210]"
1800,870,"WNLV[hArg]IGLLR (also: further groups not given here, Structure printed only as a drawing) [Compound 206]"
27000,1800,"WNLV[hArg]IGLLR (also: further groups not given here, Structure printed only as a drawing) [Compound 225]"
7300,1400,"WNLV[hArg]IGLLR (also: end groups and other groups only in drawing, Structure printed only as a drawing) [Compound 196]"
980,200,"WNLV[hArg]IGLLR (also: end groups and other groups only in drawing, Structure printed only as a drawing) [Compound 199]"
4100,390,"WNLV[hArg]IGLLR (also: further groups not given here, Structure printed only as a drawing) [Compound 217]"
21000,1400,"WNLV[hArg]IGLLR (also: further groups not given here, Structure printed only as a drawing) [Compound 223]"
